# Source: patent US20250101446A1, “METHOD FOR GENETIC TRANSFORMATION OF PLANT ORGANELLE GENOME AND USES THEREOF” (Solar Grants Biotechnology Inc., priority 2022, published 2025)
# B1: plant-produced recombinant human IL-38, mature form C2-W152 with C-terminal 7xHIS tag (ligand)
# chain: CSLPMARYYIIKYADQKALYTRDGQLLVGDPVADNCCAEKICILPNRGLARTKVPIFLGIQGGSRCLACVETEEGPSLQLEDVNIEELYKGGEEATRFTFFQSSSGSAFRLEAAAWPGWFLCGPAEPQQPVQLTKESEPSARTKFYFEQSWHHHHHHH
# notes: range 2-152; also called rhIL-38; plantakine IL-38
# System: PHA-stimulated PBMCs
# Assay: Cytokine secretion from PHA-stimulated PBMCs treated with plantakines (multiplex Luminex)
# Type: cell-based, human
# Protocol: The bioactivity of our plantakines IL-37b and IL-38 was assessed by monitoring the secretion of 11 cytokines, generally regarded as inflammatory markers, from PBMCs stimulated with an IA. Freshly isolated human PBMCs were subjected to various treatments-combinations of the IAs with the plantakines at different concentrations. Two different model IAs were used, either the bacterial lipopolysaccharides (LPS) or a lectin from Phaseolus vulgaris (phytohaemagglutinin, PHA); each of the IAs was applied onto cells separately, each IA was applied at two concentrations: LPS at 150 and 300 μg/mL; PHA at 5 and 10 μg/mL. Each IA at each concentration was applied in combination with one of the two plantakines, each of them at three different concentrations: 1, 10 and 100 ng/ml of the monomeric forms present in the purified extracts. Also included were treatments comprised of either IA at their lower concentrations, in combination with both plantakines at 10 ng/ml concentration in order to assess possible synergistic effects. Cells with only IAs applied represented the reference (positive controls for each concentration), cells without any treatment represented the basal level (negative control). The levels of eleven different pro-inflammatory cytokines secreted into the medium from the PBMCs-GM-SCF, IFNγ. TNFα, IL-1α, IL-1β, IL-6, IL-8, IL-22, IL12, IL-17 and IL-10 were compared between the treatments and the controls. We applied Generalized Estimating Equation (GEE) model for the statistical data analysis. This statistical approach allows for nested observations and was used to test the effects of the plantakines IL-37b and IL-38 and their dosage in the context of IA-stimulated PBMCs inflammatory responses.
# After isolation, the PBMCs from each donor separately were counted, plated in equal numbers per well and stimulated for 24 h with the applied treatments. Control wells on the plate contained media only (as basal level controls), and LPS and PHA (as positive controls at their corresponding concentrations). After the 24 h treatments stimulation the PBMCs' culture supernatants were used in the multiplex Luminex platform-assisted analysis of the concentrations of the 11 secreted pro-inflammatory cytokines.
# The whole blood from 5 random human donors was collected in ACD Vacutainer tubes and immediately processed for isolation of PBMCs by gradient density centrifugation using Lympholyte. […] 5% CO2 and >80% humidity. PBMCs were treated with one of two IAs at 2 concentrations each (LPS at 150 and 300 μg/mL; PHA at 5 and 10 μg/mL) in combination with two test items (plant-produced IL-37b or IL-38) at three concentrations each (1, 10 and 100 ng/ml), based on the monomeric form amounts estimated with densitometry (ImageJ). Each treatment was tested in triplicates. Control wells contained media only (negative control, basal level of detection) and the examined IAs at both tested concentrations as the positive controls. The PBMCs were incubated for 24 hours after the stimulation for analysis of the levels of the secreted cytokines that were determined in the culture supernatant using a multiplex immunoassay (MAGPix®, Luminex), analytes were selected from the Milliplex panel HCYTOMAG-60K, sensitivity range of […]. All parameters of the Milliplex panel cytokines analysis using Luminex platform were validated (Millipore-Sigma).
# Non-linear logarithm transformation was performed to address non-normality of distribution of Luminex-derived numeric data. Generalized Estimating Equation (GEE) method was used in the analysis of nested (correlated) structure of the data. Secreted inflammatory cytokine values were used as dependent variables and test item (plantakines) with dosage as independent predictors (factors). Separate analyses were conducted for each of the 11 monitored cytokines and each inflammatory agent/concentration combination. […]
molecule,measurement,setting,value
B1,secreted GM-CSF level modulation vs positive control,"1 ng/mL, PHA 5 μg/mL","18.0%, p = 0.403"
same,secreted IFNγ level modulation vs positive control,"1 ng/mL, PHA 5 μg/mL","−35.6%, p = 0.137"
same,secreted IL-1α level modulation vs positive control,"1 ng/mL, PHA 5 μg/mL","−9.5%, p = 0.480"
same,secreted IL-1β level modulation vs positive control,"1 ng/mL, PHA 5 μg/mL","−2.0%, p = 0.888"
same,secreted IL-6 level modulation vs positive control,"1 ng/mL, PHA 5 μg/mL","−5.8%, p = 0.798"
same,secreted IL-8 level modulation vs positive control,"1 ng/mL, PHA 5 μg/mL","−11.3%, p = 0.736"
same,secreted IL-10 level modulation vs positive control,"1 ng/mL, PHA 5 μg/mL","17.4%, p = 0.244"
same,secreted IL-12 level modulation vs positive control,"1 ng/mL, PHA 5 μg/mL","63.3%, p = 0.020"
same,secreted IL-17 level modulation vs positive control,"1 ng/mL, PHA 5 μg/mL","4.1%, p = 0.807"
same,secreted IL-22 level modulation vs positive control,"1 ng/mL, PHA 5 μg/mL","8.1%, p = 0.631"
same,secreted TNFα level modulation vs positive control,"1 ng/mL, PHA 5 μg/mL","46.2%, p = 0.173"
same,secreted GM-CSF level modulation vs positive control,"1 ng/mL, PHA 10 μg/mL","1.5%, p = 0.881"
same,secreted IFNγ level modulation vs positive control,"1 ng/mL, PHA 10 μg/mL","−36.9%, p = 0.164"
same,secreted IL-1α level modulation vs positive control,"1 ng/mL, PHA 10 μg/mL","−5.8%, p = 0.469"
same,secreted IL-1β level modulation vs positive control,"1 ng/mL, PHA 10 μg/mL","0.0%, p = 1.000"
same,secreted IL-6 level modulation vs positive control,"1 ng/mL, PHA 10 μg/mL","−2.0%, p = 0.898"
same,secreted IL-8 level modulation vs positive control,"1 ng/mL, PHA 10 μg/mL","−5.8%, p = 0.823"
same,secreted IL-10 level modulation vs positive control,"1 ng/mL, PHA 10 μg/mL","22.1%, p = 0.033"
same,secreted IL-12 level modulation vs positive control,"1 ng/mL, PHA 10 μg/mL","22.2%, p = 0.476"
same,secreted IL-17 level modulation vs positive control,"1 ng/mL, PHA 10 μg/mL","22.1%, p = 0.166"
same,secreted IL-22 level modulation vs positive control,"1 ng/mL, PHA 10 μg/mL","86.8%, p < 0.001"
same,secreted TNFα level modulation vs positive control,"1 ng/mL, PHA 10 μg/mL","55.3%, p = 0.411"
same,secreted IFNγ level modulation vs positive control,"10 ng/mL, PHA 5 μg/mL","−53.2%, p = 0.032"
same,secreted IL-1α level modulation vs positive control,"10 ng/mL, PHA 5 μg/mL","4.1%, p = 0.690"
same,secreted IL-1β level modulation vs positive control,"10 ng/mL, PHA 5 μg/mL","4.1%, p = 0.801"
same,secreted IL-6 level modulation vs positive control,"10 ng/mL, PHA 5 μg/mL","10.5%, p = 0.538"
same,secreted IL-8 level modulation vs positive control,"10 ng/mL, PHA 5 μg/mL","8.3%, p = 0.772"
same,secreted IL-10 level modulation vs positive control,"10 ng/mL, PHA 5 μg/mL","15.0%, p = 0.224"
same,secreted IL-12 level modulation vs positive control,"10 ng/mL, PHA 5 μg/mL","107.0%, p = 0.079"
same,secreted IL-17 level modulation vs positive control,"10 ng/mL, PHA 5 μg/mL","24.6%, p = 0.215"
same,secreted IL-22 level modulation vs positive control,"10 ng/mL, PHA 5 μg/mL","55.8%, p < 0.001"
same,secreted TNFα level modulation vs positive control,"10 ng/mL, PHA 5 μg/mL","49.2%, p = 0,123"
same,secreted GM-CSF level modulation vs positive control,"10 ng/mL, PHA 10 μg/mL","42.6%, p = 0.016"
same,secreted IFNγ level modulation vs positive control,"10 ng/mL, PHA 10 μg/mL","−53.2%, p = 0.046"
same,secreted IL-1α level modulation vs positive control,"10 ng/mL, PHA 10 μg/mL","−2.0%, p = 0.893"
same,secreted IL-1β level modulation vs positive control,"10 ng/mL, PHA 10 μg/mL","4.1%, p = 0.761"
same,secreted IL-6 level modulation vs positive control,"10 ng/mL, PHA 10 μg/mL","6.2%, p = 0.722"
same,secreted IL-8 level modulation vs positive control,"10 ng/mL, PHA 10 μg/mL","−3.9%, p = 0.886"
same,secreted IL-10 level modulation vs positive control,"10 ng/mL, PHA 10 μg/mL","32.3%, p < 0.001"
same,secreted IL-12 level modulation vs positive control,"10 ng/mL, PHA 10 μg/mL","8.8%, p = 0.750"
same,secreted IL-17 level modulation vs positive control,"10 ng/mL, PHA 10 μg/mL","19.7%, p = 0.188"
same,secreted IL-22 level modulation vs positive control,"10 ng/mL, PHA 10 μg/mL","61.7%, p = 0.061"
same,secreted TNFα level modulation vs positive control,"10 ng/mL, PHA 10 μg/mL","166.4%, p = 0.105"
same,secreted IFNγ level modulation vs positive control,"100 ng/mL, PHA 5 μg/mL","6.2%, p = 0.856"
same,secreted IL-1α level modulation vs positive control,"100 ng/mL, PHA 5 μg/mL","46.2%, p = 0.015"
same,secreted IL-1β level modulation vs positive control,"100 ng/mL, PHA 5 μg/mL","43.3%, p = 0.019"
same,secreted IL-6 level modulation vs positive control,"100 ng/mL, PHA 5 μg/mL","15.0%, p = 0.432"
same,secreted IL-8 level modulation vs positive control,"100 ng/mL, PHA 5 μg/mL","10.5%, p = 0.731"
same,secreted IL-10 level modulation vs positive control,"100 ng/mL, PHA 5 μg/mL","15.0%, p = 0.275"
same,secreted IL-12 level modulation vs positive control,"100 ng/mL, PHA 5 μg/mL","123.0%, p < 0.001"
same,secreted IL-17 level modulation vs positive control,"100 ng/mL, PHA 5 μg/mL","29.7%, p = 0.107"
same,secreted IL-22 level modulation vs positive control,"100 ng/mL, PHA 5 μg/mL","15.3%, p = 0.347"
same,secreted TNFα level modulation vs positive control,"100 ng/mL, PHA 5 μg/mL","85.9%, p = 0.026"
same,secreted IFNγ level modulation vs positive control,"100 ng/mL, PHA 10 μg/mL","6.2%, p = 0.852"
same,secreted IL-1α level modulation vs positive control,"100 ng/mL, PHA 10 μg/mL","40.5%, p < 0.001"
same,secreted IL-1β level modulation vs positive control,"100 ng/mL, PHA 10 μg/mL","46.2%, p = 0.001"
same,secreted IL-6 level modulation vs positive control,"100 ng/mL, PHA 10 μg/mL","4.1%, p = 0.810"
same,secreted IL-8 level modulation vs positive control,"100 ng/mL, PHA 10 μg/mL","−2.0%, p = 0.943"
same,secreted IL-10 level modulation vs positive control,"100 ng/mL, PHA 10 μg/mL","22.1%, p = 0.033"
same,secreted IL-12 level modulation vs positive control,"100 ng/mL, PHA 10 μg/mL","74.3%, p = 0.002"
same,secreted IL-17 level modulation vs positive control,"100 ng/mL, PHA 10 μg/mL","55.3%, p = 0.003"
same,secreted IL-22 level modulation vs positive control,"100 ng/mL, PHA 10 μg/mL","50.0%, p = 0.020"
same,secreted TNFα level modulation vs positive control,"100 ng/mL, PHA 10 μg/mL","252.5%, p = 0.017"
same,Decreased secretion: number of treatments with statistically significant modulation,PHA 5 μg/mL,1
same,Increased secretion: number of treatments with statistically significant modulation,PHA 5 μg/mL,7
same,Decreased secretion: number of treatments with statistically significant modulation,PHA 10 μg/mL,1
same,Increased secretion: number of treatments with statistically significant modulation,PHA 10 μg/mL,12
